Results reported in the supplement of paper PMC10724198.
± gives the standard deviation of the averaged measurements.

The sequences below were run on Saccharomyces cerevisiae (assay: protein stability index of tFT-peptide fusion (C-terminal peptide) (PSI (0-1 scale)); higher = more stable (slower turnover)). Settings: genetic background: wild type; temperature: 30 C.
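Note: PSI is a weighted mean of sequencing reads over stability bins, variants kept only with over 10 reads, mCherry proximal and sfGFP distal, peptide attached via GGGS linker.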

Row | Sequence | protein stability index
1 | QPLSFAYMPPLS | 0.653 ± 0.033
2 | QPRVEYSSYWAV | 0.644 ± 0.034
3 | QQKKKTKGNNEV | 0.661 ± 0.065
4 | QQKKPIRKELRN | 0.702 ± 0.053
5 | QREKTRSWDIET | 0.686 ± 0.041
6 | QREYHENKIKYI | 0.563 ± 0.066
7 | QRKYTLCVRPFP | 0.697 ± 0.037
8 | QRSPNRISPADY | 0.798 ± 0.11
9 | QRVIELVLISNM | 0.539 ± 0.043
10 | QRWTAGTQIRPV | 0.706 ± 0.0086
11 | QSKANIVEEIWI | 0.688 ± 0.02
12 | QSPPDDRPPPHP | 0.676 ± 0.029
13 | QSPRLTSGPQPL | 0.652 ± 0.022
14 | QSQGTRLAPVTR | 0.729 ± 0.068
15 | QTKKKLTQSQRT | 0.694 ± 0.019
16 | QTRDFRRASYAP | 0.646 ± 0.019
17 | QTVPGKNLDGDL | 0.714 ± 0.013
18 | QVFITGHQLCVM | 0.535 ± 0.0064
19 | QVGPSPCHPFTL | 0.684 ± 0.0091
20 | QVWLLRPAPARV | 0.598 ± 0.12
21 | QYQDRHIDRSGR | 0.657 ± 0.078
22 | RAARGQQGGPVA | 0.651 ± 0.041
23 | RADIRYCNCRGQ | 0.607 ± 0.045
24 | RADLLQRGGDRI | 0.677 ± 0.093
25 | RAEGGDSGVAAL | 0.703 ± 0.011
26 | RAFASLALAILP | 0.623 ± 0.038

Row | Sequence | protein stability index
27 | RAFEGGRHCRAG | 0.67 ± 0.049
28 | RAGALYLGICDT | 0.738 ± 0.069
29 | RAGCWFAGYSRV | 0.721 ± 0.078
30 | RAGVFLPSGVAI | 0.663 ± 0.011
31 | RAGVRWGGGGGG | 0.67 ± 0.014
32 | RAHLVSAPPQNF | 0.7074 ± 0.0033
33 | RAHSGSTCCGAQ | 0.698 ± 0.04
34 | RAMWAGKGGDGW | 0.738 ± 0.086
35 | RAPDHRPGRLQK | 0.724 ± 0.013
36 | RAPGPGQIRLVQ | 0.72 ± 0.035
37 | RARCFGGFCAIP | 0.724 ± 0.088
38 | RARHDGWRHLYE | 0.707 ± 0.055
39 | RASLTPSDHLFF | 0.766 ± 0.02
40 | RASPPPPPPPPP | 0.658 ± 0.045
41 | RASPTTILCKRQ | 0.678 ± 0.025
42 | RAVLSNRVEERI | 0.696 ± 0.022
43 | RAYATPIPRSAI | 0.655 ± 0.046
44 | RCCGLWVDGFLL | 0.743 ± 0.045
45 | RCCLDLLIFPCS | 0.735 ± 0.15
46 | RCERKTGHHYRT | 0.637 ± 0.072
47 | RCETHKDHESNE | 0.725 ± 0.014
48 | RCRGPVYIPPGT | 0.654 ± 0.027
49 | RCRGTEGWLDSG | 0.63 ± 0.009
50 | RDAPLGRRLRPV | 0.678 ± 0.021
51 | RDGDVRTLMGWD | 0.732 ± 0.037
52 | RDGSNSNGKKKK | 0.6 ± 0.051

Row | Sequence | protein stability index
53 | RDLSEGRSPLGI | 0.661 ± 0.081
54 | RDPSIVDHTVVT | 0.735 ± 0.041
55 | RDSLGGRSMHGW | 0.682 ± 0.029
56 | RDVWPFTGKRAL | 0.672 ± 0.014
57 | REEREISGNLLV | 0.7899 ± 0.0075
58 | REGKGREQGRKK | 0.616 ± 0.053
59 | REGKIVNNKNEN | 0.687 ± 0.077
60 | REGVELTRPVTC | 0.696 ± 0.041
61 | REKDMIKSGIKS | 0.724 ± 0.02
62 | REMDDRLEQSVP | 0.743 ± 0.017
63 | REPPFFRLSPQV | 0.722 ± 0.042
64 | REQKTKDKKKRQ | 0.703 ± 0.024
65 | RERNNISVKGKL | 0.679 ± 0.049
66 | RERPHSDYLACH | 0.691 ± 0.026
67 | RESTKNETSGKK | 0.632 ± 0.04
68 | REVIGFLSYWKG | 0.711 ± 0.14
69 | RFCRAFSGALSR | 0.805 ± 0.021
70 | RFDGLTTALDSV | 0.669 ± 0.04
71 | RFFPPPARPSPF | 0.732 ± 0.025
72 | RFLMGYEVNCAV | 0.548 ± 0.015
73 | RFMAFGDKEILR | 0.662 ± 0.033
74 | RFPLCLHLPLLL | 0.55 ± 0.012
75 | RFPLSLRIPLPK | 0.63 ± 0.034
76 | RFSPARPASPPP | 0.687 ± 0.036
77 | RFWGWCSAVLSS | 0.622 ± 0.056
78 | RGAHVTRPGTRD | 0.66 ± 0.034

Row | Sequence | protein stability index
79 | RGALGVVWAGLD | 0.638 ± 0.021
80 | RGARGIGVRLRV | 0.651 ± 0.026
81 | RGASDYARMSAF | 0.7047 ± 0.0037
82 | RGDGAGQARGVV | 0.684 ± 0.053
83 | RGDGVRGGKNGR | 0.689 ± 0.034
84 | RGEVWVEVALGV | 0.642 ± 0.021
85 | RGFSLSCCERSI | 0.749 ± 0.026
86 | RGGAGRRWGRGK | 0.631 ± 0.073
87 | RGGGGGGGAAGS | 0.657 ± 0.037
88 | RGGGGRGFAGRK | 0.608 ± 0.038
89 | RGGGLGGLRSRA | 0.823 ± 0.081
90 | RGGGRGVWGHVV | 0.607 ± 0.0063
91 | RGGGWVLEVLLG | 0.5195 ± 0.0024
92 | RGGWGGGDCVGA | 0.688 ± 0.09
93 | RGGWRVTNKKNI | 0.645 ± 0.023
94 | RGKSPPPSSPPL | 0.684 ± 0.024
95 | RGLRRIPDAPPH | 0.757 ± 0.028
96 | RGLSCAAYFSGA | 0.727 ± 0.028
97 | RGPPPTSPPSPP | 0.664 ± 0.013
98 | RGPSSPTPRPAA | 0.77 ± 0.13
99 | RGRGRGGPLSGG | 0.731 ± 0.017
100 | RGRGRISGSWGT | 0.718 ± 0.013
101 | RGRGRVRPRRKR | 0.6831 ± 0.0011
